Laboratory results reported in patent publication US20240166705A1.

Columns and labels:
[1] = target: XENP38865 (IL18×Fab-Fc fusion, IL18 4CS/K53A, silent Fv) (human); assay: cell-based or functional assay
[2] = target: XENP37827 (IL18×Fab-Fc fusion with WT-4CS IL18 and a silent Fv) (human); assay: cell-based or functional assay
Sequence of XENP37827 (IL18×Fab-Fc fusion with WT-4CS IL18 and a silent Fv) (human) (Q14116 other isoform, or with tags, fused parts or gaps): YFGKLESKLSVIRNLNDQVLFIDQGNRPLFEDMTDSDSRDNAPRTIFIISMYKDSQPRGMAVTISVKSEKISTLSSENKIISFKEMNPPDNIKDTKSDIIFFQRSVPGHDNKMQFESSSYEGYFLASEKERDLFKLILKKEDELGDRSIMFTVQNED

Sequence of XENP38865 (IL18×Fab-Fc fusion, IL18 4CS/K53A, silent Fv) (human) (Q14116 other isoform, or with tags, fused parts or gaps K53A K53A): as the sequence (Q14116 other isoform, or with tags, fused parts or gaps) above, with K53A counted along it

IC50 of dose dependent inhibition of KG-1 cell activation (induction of PD-L1 expression) by IL18BP at fixed concentration (10 nM) of the IL18 fusion [1]: 88.7 nM
IC50 of dose dependent inhibition of KG-1 cell activation (induction of PD-L1 expression) by IL18BP at fixed concentration (10 nM) of the IL18 fusion [2]: 5.5 nM
Substance: IL18 binding protein (IL18BP) (from UniProt O95998 31-194)
